# Target: T1, extracellular region of human V158 FcγRIIIa fused with glutathione S-transferase (GST) (human, UniProt P08637 17-208)
# T1 construct: extracellular domain; also called human Val158 FcγRIIIa; not shown: glutathione S-transferase (GST) tag
# Experiment: AlphaScreen competition as in Example 2 (biotinylated WT antibody on donor beads, GST-tagged human V158 FcγRIIIa on acceptor beads); Fc variants in the context of rituximab
# T1 sequence (P08637 17-208 F176V): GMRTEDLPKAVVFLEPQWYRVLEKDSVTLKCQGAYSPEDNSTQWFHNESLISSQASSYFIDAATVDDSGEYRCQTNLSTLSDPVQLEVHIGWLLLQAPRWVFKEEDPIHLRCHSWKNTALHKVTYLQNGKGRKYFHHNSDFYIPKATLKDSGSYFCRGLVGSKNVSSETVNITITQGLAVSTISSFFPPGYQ
row,IC50 (read off the curve) [nM],Binder
1,~5,"V264I (antibody, N297 glycan, not carried by the letters., also called rituximab V264I; copies: 2 + 2) heavy: not shown light: QIVLSQSPAILSASPGEKVTMTCRASSSVSYIHWFQQKPGSSPKPWIYATSNLASGVPVRFSGSGSGTSYSLTISRVEAEDAATYYCQQWTSNPPTFGGGTKLEIKRTVAAPSVFIFPPSDEQLKSGTASVVCLLNNFYPREAKVQWKVDNALQSGNSQESVTEQDSKDSTYSLSSTLTLSKADYEKHKVYACEVTHQGLSSPVTKSFNRGEC"
2,~0.4,"rituximab V264I/I332E (antibody, human IgG1, kappa) heavy: not shown light: QIVLSQSPAILSASPGEKVTMTCRASSSVSYIHWFQQKPGSSPKPWIYATSNLASGVPVRFSGSGSGTSYSLTISRVEAEDAATYYCQQWTSNPPTFGGGTKLEIKRTVAAPSVFIFPPSDEQLKSGTASVVCLLNNFYPREAKVQWKVDNALQSGNSQESVTEQDSKDSTYSLSSTLTLSKADYEKHKVYACEVTHQGLSSPVTKSFNRGEC"
